Reference: patent US8497072

What was measured:
Aβ(1-42) fibrils (human) = Aβ(1-42) fibrils (human) (UniProt P05067); experiment: co-sedimentation with Aβ(1-42) fibrils, SDS-PAGE, densitometry of heavy chain in pellet and supernatant
[1] = molecular target: endogenous Aβ(1-42) in human CSF (human); experiment: IP from CSF of AD patients (n=2) with antibody-Sepharose, Aβ42 sandwich ELISA of eluate
[2] = molecular target: endogenous Aβ(1-42) in human CSF (human); experiment: IP from CSF of MCI patients (n=4) with antibody-Sepharose, Aβ42 sandwich ELISA of eluate
[3] = molecular target: endogenous Aβ(1-42) in human CSF (human); experiment: IP from AD patient CSF, urea-PAGE Western blot, share of Aβ42 in recovered Aβ40+42
[4] = molecular target: endogenous Aβ(1-40) in human CSF (human); experiment: IP from AD patient CSF with antibody on anti-mouse IgG Dynabeads, 8 M urea-PAGE and Western blot (82E1)
[5] = molecular target: endogenous Aβ(1-42) in human CSF (human); experiment: as above
[6] = molecular target: endogenous Aβ(1-40) in human CSF (human); experiment: IP from CSF of MCI patients (n=4) with antibody-Sepharose, Aβ40 sandwich ELISA of eluate
[7] = molecular target: endogenous Aβ(1-42) in human CSF (human); experiment: IP from CSF of MCI patients (n=4), ratio of recovered Aβ42 to Aβ40
[8] = molecular target: endogenous Aβ(1-40) in human CSF (human); experiment: IP from CSF of AD patients (n=2) with antibody-Sepharose, Aβ40 sandwich ELISA of eluate
[9] = molecular target: endogenous Aβ(1-42) in human CSF (human); experiment: IP from CSF of AD patients (n=2), ratio of recovered Aβ42 to Aβ40
[10] = molecular target: Aβ1-42 monomer (dot blot) (human); experiment: dot blot, 10 pmol antigen on nitrocellulose, 0.2 µg/ml antibody, densitometry
Aβ(1-40) monomer (human) = experiment: as above
Chain of Aβ(1-40) monomer (human) (peptide, as listed by the source): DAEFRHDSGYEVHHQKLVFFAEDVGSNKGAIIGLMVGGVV

Chain of endogenous Aβ(1-42) in human CSF (human) (peptide, as listed by the source): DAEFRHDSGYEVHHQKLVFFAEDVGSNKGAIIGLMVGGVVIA

Substance	Fibril bound Ab fraction (Aβ(1-42) fibrils (human)) [%]	Aβ(1-42) recovered after immunoprecipitation [1]	Aβ(1-42) recovered after immunoprecipitation [2]	Ratio Aβ42/Aβ40+42 × 100% [3] [%]	Aβ40 urea-PAGE after immunoprecipitation [4] [pg/mL]	Aβ42 urea-PAGE after immunoprecipitation [5] [pg/mL]	Aβ(1-40) recovered after immunoprecipitation [6]	Aβ42/40 [7] [%]	Aβ(1-40) recovered after immunoprecipitation [8]	Aβ42/40 [9] [%]	Reflective Density (RD) [10 pmol] [10] [RD]	Reflective Density (RD) [10 pmol] (Aβ(1-40) monomer (human)) [RD]
mMAb 6E10 (Signet Inc. Cat.# 9320) (antibody)	98	1450	2040	4.4	4390	202	8280	17.4	5610	20.6		
mMAb 4G8 (Signet Inc. Cat# 9220) (antibody)											3.1	0.7
